Legend:
[1] = test system: GPI anchored proteins (endogenous ALPL) on HeLa cells; test: Transduction of HeLa cells after PI/PLC removal of GPI anchored proteins; type: cell-based, human; conditions: 1E4 VG/cell
Method: Endogenous ALPL was also removed from the surface of HeLa cells by treatment with increasing concentrations phosphatidylinositol-specific phospholipase C (PI/PLC), which cleaves GPI anchored proteins (0, 1, 3, 6, or 10 U/mL), for 1.5 hours at 37° C. Following PI/PLC treatment, cells were incubated with 1E4 VG/cell for three hours of AAV particles comprising the TTM-002 capsid variant or AAV particles comprising an AAV9 control capsid, cells were then washed to remove free virus, and luciferase activity was measured 24 hours post-transduction (RLU).

[2] = biological target: T1, ALPL (Homo sapiens, UniProt P05186); type: cell-based; design: expressed in transfected cells; host or cells: HEK 293T; conditions: viral genomes, 2 or 3 hours post-incubation, relative to pCMV6
T1 sequence (P05186 18-501): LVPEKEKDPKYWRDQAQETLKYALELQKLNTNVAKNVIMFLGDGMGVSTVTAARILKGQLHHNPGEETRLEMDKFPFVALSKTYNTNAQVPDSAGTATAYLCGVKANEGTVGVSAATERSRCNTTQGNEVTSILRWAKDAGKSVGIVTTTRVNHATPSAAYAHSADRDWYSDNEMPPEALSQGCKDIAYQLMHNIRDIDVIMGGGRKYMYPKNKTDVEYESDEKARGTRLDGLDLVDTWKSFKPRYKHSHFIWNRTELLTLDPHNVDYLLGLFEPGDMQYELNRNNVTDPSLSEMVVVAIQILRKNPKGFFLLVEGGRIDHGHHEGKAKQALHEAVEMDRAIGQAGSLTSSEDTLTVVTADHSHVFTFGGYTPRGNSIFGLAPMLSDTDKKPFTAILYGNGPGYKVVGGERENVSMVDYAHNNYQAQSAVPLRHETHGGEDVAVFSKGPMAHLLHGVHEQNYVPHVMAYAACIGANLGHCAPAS
Method: Binding and internalization of AAV capsid variants comprising the TTM-001 capsid variant, the TTM-002 capsid variant, or the AAV9 control capsid was also investigated in cells engineered to express ALPL. HEK 293T cells were transfected via calcium phosphate transfection with a plasmid expressing ALPL, an AAVR positive control, or a pCMV6 negative control. At 24 hours post-transfection, the HEK 293T cells expressing the ALPL receptor were incubated with an AAV particle comprising the TTM-001 capsid variant, the TTM-002 capsid variant, or an AAV9 control capsid protein, expressing a GFP payload. At 2 or 3-hours post-incubation, cells were washed to remove unbound AAV particles and DNA was extracted to quantify viral genomes.

[3] = test system: brain; test: NGS fold enrichment of synthetic library (passage 3) in C57Bl/6 mice, first cross-species screen; type: in vivo; conditions: synthetic library passage 3, intravenous, RNA NGS, brain of C57Bl/6 mice, relative to wild-type AAV9
Outline: (§1)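 Fold enrichment versus wild-type AAV9 was derived by NGS of RT-PCR-amplified RNA from nervous tissue, collected e.g. 28 days after IV dosing […]. The library (passage 3) was given to two NHPs aged 2-4 years and to 6-8-week BALB/c and C57Bl/6 mice (n=3 each).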

[4] = test system: brains and tissues (liver, DRG, quadriceps, and heart); test: NGS fold enrichment of capsid variants in African green monkeys; type: in vivo, African green monkeys (Chlorocebus sabaeus); conditions: 2E13 vg/kg IV, 14 days
Excerpt: To investigate tropism in African green monkeys, AAV particles comprising the TTM-001 capsid variant, the TTM-002 capsid variant, an AAV9 capsid variant comprising SEQ ID NO: 966, or an AAV9 control under the control of a synapsin promoter, were intravenously injected into NHPs (n=2, 3-12 years of age) at a dose of 2E13 vg/kg. After 14-days in life, the brains and tissues (liver, DRG, quadriceps, and heart) of the NHPs were collected and RNA was extracted. Following RNA recovery and RT-PCR amplification, a systematic NGS enrichment analysis was performed to calculate the fold enrichment ratio relative to the AAV9 wild-type control.

[5] = test system: brain, spinal cord, and DRG of the NHPs; test: NGS fold enrichment of synthetic library (passage 3) in NHPs, first cross-species screen; type: in vivo, cynomolgus macaques (Macaca fascicularis); conditions: for fold enrichment in the DRG of NHPs relative to AAV9 / fold enrichment in the brain of NHPs relative to AAV9 / fold enrichment in the spinal cord of NHPs relative to AAV9: passage 3, intravenous; for Fold enrichment over AAV9 in the brain of NHPs / Fold enrichment over AAV9 in the spinal cord of NHPs: synthetic library passage 3, intravenous, RNA NGS, relative to wild-type AAV9
Outline: as §1

[6] = test system: brain; test: Second cross-species screen, passage 2 in BALB/c mice after first passage in NHPs; type: in vivo
Method: A second cross-species evolution screen was performed using an AAV capsid variant library with a modification in loop IV introduced as described above and passaging it once through NHPs (passage 1) and then subsequently injected it into two different strains of mice (passage 2), C57Bl/6 and BALB/c. The fold-enrichment for each variant in the brain of each mouse species was calculated by systematic NGS enrichment analysis following RNA recovery and RT-PCR amplification. The fold enrichment values in the second passage in mice were compared to those fold enrichment values from the second pass that was performed in NHPs as described above. […] Further, 10 of these 12 variants comprised the SPH motif and a positive residue in one of the next three subsequent residues (Table 10).

[7] = test system: brain; test: Second cross-species screen, synthetic library passage 3 in BALB/c mice; type: in vivo; conditions: for Fold enrichment over AAV9 in BALB/c: third passage (P3)
Method: There were approximately 500 variants in this synthetic library. This synthetic library was then injected back into both strains of mice (C57Bl/6 and BALB/c; passage 3). RNA was recovered from the mouse brains, RT-PCR amplification was performed, and fold-enrichment relative to wild-type AAV9 was calculated by NGS analysis, which is provided in Table 11.

[8] = P3, average of BALB/c and C57Bl/6

Molecule	Transduction in HeLa as measured by luciferase assay (RLU) following treatment with PI/PLC ([1]; PI/PLC 0 U/mL)	Transduction in HeLa as measured by luciferase assay (RLU) following treatment with PI/PLC ([1]; PI/PLC 1 U/mL)	Transduction in HeLa as measured by luciferase assay (RLU) following treatment with PI/PLC ([1]; PI/PLC 3 U/mL)	Transduction in HeLa as measured by luciferase assay (RLU) following treatment with PI/PLC ([1]; PI/PLC 6 U/mL)	Transduction in HeLa as measured by luciferase assay (RLU) following treatment with PI/PLC ([1]; PI/PLC 10 U/mL)	fold increase in binding/internalization in cells expressing ALPL [2]	Fold enrichment over AAV9 in the brain of Mice (C57Bl/6) [3]	expression relative to AAV9 in the heart of African green monkeys [4]	fold increase in expression relative to AAV9 in the brain of African green monkeys [4]	fold enrichment in the DRG of NHPs relative to AAV9 [5]	fold enrichment in the brain of NHPs relative to AAV9 [5]	fold enrichment in the spinal cord of NHPs relative to AAV9 [5]	Fold enrichment over AAV9 in the brain of NHPs [5]	Fold enrichment over AAV9 in the spinal cord of NHPs [5]	Fold enrichment over AAV9 in BALB/c P2 [6]	Average fold enrichment over AAV9 [7, 8]	Fold enrichment over AAV9 in BALB/c [7]	other results
AAV9: wild-type AAV9 control capsid [reference compound]	239.3 RLU	193.7 RLU	222 RLU	207.7 RLU	212 RLU	unaffected	–	–	–	–	–	–	–	–	–	–	–	–
TTM-001: AAV9 capsid variant comprising SPHSKA (SEQ ID NO: 941) in loop IV (protein) chain 1: MAADGYLPDWLEDNLSEGIREWWALKPGAPQPKANQQHQDNARGLVLPGYKYLGPGNGLDKGEPVNAADAAALEHDKAYDQQLKAGDNPYLKYNHADAEFQERLKEDTSFGGNLGRAVFQAKKRLLEPLGLVEEAAKTAPGKKRPVEQSPQEPDSSAGIGKSGAQPAKKRLNFGQTGDTESVPDPQPIGEPPAAPSGVGSLTMASGGGAPVADNNEGADGVGSSSGNWHCDSQWLGDRVITTSTRTWALPTYNNHLYKQISNSTSGGSSNDNAYFGYSTPWGYFDFNRFHCHFSPRDWQRLINNNWGFRPKRLNFKLFNIQVKEVTDNNGVKTIANNLTSTVQVFTDSDYQLPYVLGSAHEGCLPPFPADVFMIPQYGYLTLNDGSQAVGRSSFYCLEYFPSQMLRTGNNFQFSYEFENVPFHSSYAHSQSLDRLMNPLIDQYLYYLSKTINGSGSPHSKAQNQQTLKFSVAGPSNMAVQGRNYIPGPSYRQQRVSTTVTQNNNSEFAWPGASSWALNGRNSLMNPGPAMASHKEGEDRFFPLSGSLIFGKQGTGRDNVDADKVMITNEEEIKTTNPVATESYGQVATNHQSAQAQAQTGWVQNQGILPGMVWQDRDVYLQGPIWAKIPHTDGNFHPSPLMGGFGMKHPPPQILIKNTPVPADPPTAFNKDKLNSFITQYSTGQVSVEIEWELQKENSKRWNPEIQYTSNYYKSNNVEFAVNTEGVYSEPRPIGTRYLTRNL chain 2: GSGSPHSKAQNQQT	–	–	–	–	–	3 fold	25.293 fold	a significant increase in expression relative to AAV9	43.5 fold	0.4 fold	73.6 fold	29.4 fold	73.615 fold	29.402 fold	44.58 fold	63.1 fold	60.312 fold	fold enrichment in the brain of NHPs relative to AAV9 ([5]; listed as GSGSPHSKAQNQQT): 76.6 fold; Average fold enrichment over AAV9 ([7]; P3, average of BALB/c and C57Bl/6, listed as GSGSPHSKAQNQQT): 63.083 fold
TTM-002: AAV9 capsid variant comprising HDSPHK (SEQ ID NO: 2) in loop IV (protein) chain 1: MAADGYLPDWLEDNLSEGIREWWALKPGAPQPKANQQHQDNARGLVLPGYKYLGPGNGLDKGEPVNAADAAALEHDKAYDQQLKAGDNPYLKYNHADAEFQERLKEDTSFGGNLGRAVFQAKKRLLEPLGLVEEAAKTAPGKKRPVEQSPQEPDSSAGIGKSGAQPAKKRLNFGQTGDTESVPDPQPIGEPPAAPSGVGSLTMASGGGAPVADNNEGADGVGSSSGNWHCDSQWLGDRVITTSTRTWALPTYNNHLYKQISNSTSGGSSNDNAYFGYSTPWGYFDFNRFHCHFSPRDWQRLINNNWGFRPKRLNFKLFNIQVKEVTDNNGVKTIANNLTSTVQVFTDSDYQLPYVLGSAHEGCLPPFPADVFMIPQYGYLTLNDGSQAVGRSSFYCLEYFPSQMLRTGNNFQFSYEFENVPFHSSYAHSQSLDRLMNPLIDQYLYYLSKTINGHDSPHKSGQNQQTLKFSVAGPSNMAVQGRNYIPGPSYRQQRVSTTVTQNNNSEFAWPGASSWALNGRNSLMNPGPAMASHKEGEDRFFPLSGSLIFGKQGTGRDNVDADKVMITNEEEIKTTNPVATESYGQVATNHQSAQAQAQTGWVQNQGILPGMVWQDRDVYLQGPIWAKIPHTDGNFHPSPLMGGFGMKHPPPQILIKNTPVPADPPTAFNKDKLNSFITQYSTGQVSVEIEWELQKENSKRWNPEIQYTSNYYKSNNVEFAVNTEGVYSEPRPIGTRYLTRNL chain 2: GHDSPHKSGQNQQT	1731 RLU	474 RLU	441 RLU	396.7 RLU	239.3 RLU	6 fold	63.993 fold	a significant increase in expression relative to AAV9	13.8 fold	0.0 fold	62.6 fold	15.6 fold	62.612 fold	15.641 fold	59.14 fold	66.8 fold	82.460 fold	transduction after PI/PLC treatment ([1]; HeLa, luciferase 24 hours): significantly decreased transduction; Average fold enrichment over AAV9 ([7]; P3, average of BALB/c and C57Bl/6, listed as GHDSPHKSGQNQQT): 66.792 fold
